Results reported in US20260356929 (published 2026).

T1: human VEGF-A165b (human, UniProt P15692)
T1 chain: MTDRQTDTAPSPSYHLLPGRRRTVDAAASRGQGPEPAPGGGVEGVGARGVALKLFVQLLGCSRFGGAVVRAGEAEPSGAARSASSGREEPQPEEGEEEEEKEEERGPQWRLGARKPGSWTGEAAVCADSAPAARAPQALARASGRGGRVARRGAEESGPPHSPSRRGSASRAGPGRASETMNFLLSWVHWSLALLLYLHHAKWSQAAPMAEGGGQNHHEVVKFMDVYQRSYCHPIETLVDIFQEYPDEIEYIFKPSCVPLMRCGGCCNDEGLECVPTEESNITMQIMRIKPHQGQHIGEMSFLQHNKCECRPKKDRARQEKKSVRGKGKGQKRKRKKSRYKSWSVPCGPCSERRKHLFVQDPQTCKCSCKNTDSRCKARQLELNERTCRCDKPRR

B1: HC3 LC1 (antibody, V domains shown)
VH: EVQLVESGGGLVQPGGSLRLSCAASGFDFSRYWMSWVRQAPGKGLEWISEIHPYSSTINYTPSVKDRFTISRDNAKNSLYLQMNSLRDEDTALYYCARAFAYWGQGTLVTVSS
VL: DVVMTQSPLSLPVTLGQPASISCKSSQSLLDSDGKTYLNWFQQRPGQSPRRLIYLVSKLDSGVPDRFSGSGSGTDFTLKISRVEAEDVGVYYCWQGTHFPYTFGGGTKVEIKR
B2: HC1 LC2 (antibody, V domains shown)
VH: EVQLLESGGGLVKPGGSLRLSCAASGFDFSRYWMSWIRQAPGKGLEWVSEIHPYSSTINYTPSVKDRFTISRDNAKNSLYLQMNSLRAEDTAVYYCARAFAYWGQGTLVTVSS
VL: DVVMTQSPLSLPVTLGQPASISCRSSQSLLDSDGKTYLNWELQRPGQSPRRLIYLVSKLDSGVPDRFSGSGSGTDFTLKISRVEAEDVGVYYCWQGTHFPYTFGQGTKVEIKR
B3: HC4 LC1 (antibody, V domains shown)
VH: EVQLVESGGGLVQPGGSLRLSCAASGFDFSRYWMSWVRQAPGKGLEWVAEIHPYSSTINYTPSVKDRFTISRDNAKNSLYLQMNSLRSEDTAVYYCARAFAYWGQGTLVTVSS
VL: DVVMTQSPLSLPVTLGQPASISCKSSQSLLDSDGKTYLNWFQQRPGQSPRRLIYLVSKLDSGVPDRFSGSGSGTDFTLKISRVEAEDVGVYYCWQGTHFPYTFGGGTKVEIKR
B4: HC1 LC1 (antibody, V domains shown)
VH: EVQLLESGGGLVKPGGSLRLSCAASGFDFSRYWMSWIRQAPGKGLEWVSEIHPYSSTINYTPSVKDRFTISRDNAKNSLYLQMNSLRAEDTAVYYCARAFAYWGQGTLVTVSS
VL: DVVMTQSPLSLPVTLGQPASISCKSSQSLLDSDGKTYLNWFQQRPGQSPRRLIYLVSKLDSGVPDRFSGSGSGTDFTLKISRVEAEDVGVYYCWQGTHFPYTFGGGTKVEIKR
B5: HC2 LC2 (antibody, V domains shown)
VH: EVQLVESGGGLVQPGGSLRLSCAASGFDFSRYWMSWVRQAPGKGLEWVAEIHPYSSTINYTPSVKDRFIISRDNAKNSVYLQLNSLRAEDTAVYYCARAFAYWGQGTLVTVSS
VL: DVVMTQSPLSLPVTLGQPASISCRSSQSLLDSDGKTYLNWELQRPGQSPRRLIYLVSKLDSGVPDRFSGSGSGTDFTLKISRVEAEDVGVYYCWQGTHFPYTFGQGTKVEIKR
B6: HC4 LC2 (Vexobicizumab) (antibody, V domains shown)
VH: EVQLVESGGGLVQPGGSLRLSCAASGFDFSRYWMSWVRQAPGKGLEWVAEIHPYSSTINYTPSVKDRFTISRDNAKNSLYLQMNSLRSEDTAVYYCARAFAYWGQGTLVTVSS
VL: DVVMTQSPLSLPVTLGQPASISCRSSQSLLDSDGKTYLNWELQRPGQSPRRLIYLVSKLDSGVPDRFSGSGSGTDFTLKISRVEAEDVGVYYCWQGTHFPYTFGQGTKVEIKR
B7: HC2 LC1 (antibody, V domains shown)
VH: EVQLVESGGGLVQPGGSLRLSCAASGFDFSRYWMSWVRQAPGKGLEWVAEIHPYSSTINYTPSVKDRFIISRDNAKNSVYLQLNSLRAEDTAVYYCARAFAYWGQGTLVTVSS
VL: DVVMTQSPLSLPVTLGQPASISCKSSQSLLDSDGKTYLNWFQQRPGQSPRRLIYLVSKLDSGVPDRFSGSGSGTDFTLKISRVEAEDVGVYYCWQGTHFPYTFGGGTKVEIKR
B8: HC3 LC2 (antibody, V domains shown)
VH: EVQLVESGGGLVQPGGSLRLSCAASGFDFSRYWMSWVRQAPGKGLEWISEIHPYSSTINYTPSVKDRFTISRDNAKNSLYLQMNSLRDEDTALYYCARAFAYWGQGTLVTVSS
VL: DVVMTQSPLSLPVTLGQPASISCRSSQSLLDSDGKTYLNWELQRPGQSPRRLIYLVSKLDSGVPDRFSGSGSGTDFTLKISRVEAEDVGVYYCWQGTHFPYTFGQGTKVEIKR
B9: HC5 LC1 (antibody, V domains shown)
VH: EVQLVESGGGLVQPGGSLRLSCAASGFDFSRYWMSWVRQAPGKGLEWVSEIHPYSSTINYTPSVKDRFTISRDNAKNSLYLQMNSLRAEDTAVYYCARAFAYWGQGTLVTVSA
VL: DVVMTQSPLSLPVTLGQPASISCKSSQSLLDSDGKTYLNWFQQRPGQSPRRLIYLVSKLDSGVPDRFSGSGSGTDFTLKISRVEAEDVGVYYCWQGTHFPYTFGGGTKVEIKR
B10: HC5 LC2 (antibody, V domains shown)
VH: EVQLVESGGGLVQPGGSLRLSCAASGFDFSRYWMSWVRQAPGKGLEWVSEIHPYSSTINYTPSVKDRFTISRDNAKNSLYLQMNSLRAEDTAVYYCARAFAYWGQGTLVTVSA
VL: DVVMTQSPLSLPVTLGQPASISCRSSQSLLDSDGKTYLNWELQRPGQSPRRLIYLVSKLDSGVPDRFSGSGSGTDFTLKISRVEAEDVGVYYCWQGTHFPYTFGQGTKVEIKR
B11: HC0 LC0 (chimeric Ab 1126) (antibody, V domains shown)
VH: EVKLLESGGGLVQPGGSLKLSCAASGFDFSRYWMSWVRQAPGKGLEWIGEIHPYSSTINYTPSVKDKFIISRDNAKNTLYLQMSEVRSEDTALYYCARAFAYWGQGTLVTVSA
VL: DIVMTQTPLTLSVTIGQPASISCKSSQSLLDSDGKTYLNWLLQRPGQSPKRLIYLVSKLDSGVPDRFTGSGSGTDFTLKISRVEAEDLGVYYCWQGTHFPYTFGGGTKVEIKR

Target: T1, human VEGF-A165b
Assay: BLI 25C

Row | Binder | Kd [nM]
1 | B1 | 1.5
2 | B2 | 2.1
3 | B3 | 0.9
4 | B4 | 5
5 | B5 | 3.6
6 | B6 | 0.6
7 | B7 | 4.4
8 | B8 | 1.17
9 | B9 | 3.2
10 | B10 | 0.6
11 | B11 | 0.3
